The values below come from US20040253234A1 (Kyowa Kirin, published 2004).

Changes are numbered by the printed parent chain.

The target of assay [1] is T1, C-terminus-biotin labeled compound 1 (an N-terminus peptide of FGF-8; SEQ ID NO:15) (human, C-terminus-biotin labeled).
T1 construct: also called FGF-8 peptide
T1 peptide: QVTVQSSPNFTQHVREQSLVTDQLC
Briefly: BIAcore 2000, C-terminus-biotin labeled FGF-8 peptide on SA chip, antibody as analyte, RU compared. The protocol:
In order to examine the activity of various anti-FGF-8 CDR-grafted antibodies obtained in the item 5 of Example 3 to bind to FGF-8 in more detail, activities of various anti-FGF-8 CDR-grafted antibodies to bind to FGF-8 were measured and compared as follows by using BIAcore 2000 (manufactured by BIACORE). The CHO/DG44-derived anti-FGF-8 chimeric antibody KM3034 obtained in the item 3(1) of Example 1 was used as a positive control.
Hereinbelow, HBS-EP (manufactured by Pharmacia) was used as the buffer solution for dilution of samples and during the measurement. First, a sensor tip SA (manufactured by BIACORE) was set, and 5 μl of a C-terminus-biotin labeled compound 1 (an N-terminus peptide of FGF-8; SEQ ID NO:15) prepared to a solution of 0.05 μg/ml was added thereto at a flow rate of 20μl/minute. Thereafter, the tip surface was washed by adding 5 μl of 10 mmol/l Glycine-HCl buffer (pH 1.5) continuously twice. Immobilized amount of the FGF-8 peptide was 35 RU.
To the FGF-8 peptide immobilized flow cell, 60 μl of each antibody solution was added at a flow rate of 20 μl/minute, and then the dissociation reaction was monitored for 3 minutes. After the dissociation reaction, the tip surface was regenerated by adding 20 μl of 10 mmol/l Glycine-HCl buffer (pH 1.5) continuously twice. This cycle was carried out for antibody solutions of various concentrations (50 to 1.85 μg/ml), and a sensorgram at each concentration was obtained. The sensorgram of each antibody was made into a sensorgram of specific reaction by subtracting a sensorgram obtained using a chimeric antibody KM871 for GD3 [Cancer Immunol. Immunother., 36, 373 (1993)] as a negative control.

In assay [2] the target is T2, BSA-compound 1 conjugate (human FGF-8 peptide Compound 1, SEQ ID NO:15, conjugated to bovine serum albumin) (human, conjugated to bovine serum albumin through SMCC).
T2 construct: The BSA carrier is not written as a chain
T2 peptide: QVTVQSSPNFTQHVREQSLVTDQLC
Kind of assay: ELISA, plate-coated BSA-compound 1 conjugate, anti-human IgG-peroxidase detection; positive control. Here is the method:
The conjugate prepared in the above was dispensed at 50 μl/well into a 96 well plate for ELISA (manufactured by Greiner) at a concentration of 0.5 to 1.0 μg/ml and allowed to stand for adsorption overnight at 4° C. After washing with PBS, 1% BSA-containing PBS (BSA-PBS) was added at 100 μl/well and allowed for blocking of remaining active groups to react at room temperature for 1 hour. After washing each well with 0.05% Tween-containing PBS (Tween-PBS), culture supernatants of transformants or purified antibodies were added at 50 μl/well and allowed to react at room temperature for 1 hour. After the reaction, each well was washed with Tween-PBS and then a peroxidase-labeled goat anti-human IgG (H & L) antibody solution (manufactured by American Qualex) diluted 3,000 to 6,000-folds with BSA-PBS was added as a secondary antibody solution at 50 μl/well and allowed to react at room temperature for 1 hour. […] Thereafter, absorbance at 415 nm (OD415) was measured.
The activity of various anti-FGF-8 CDR-grafted antibodies obtained in the item 4 of Example 2 to bind to FGF-8 was measured by the ELISA described in the item 2(6) of Example 1. […]

The target of assay [3] is T2, BSA-compound 1 conjugate (human FGF-8 …). Briefly: ELISA, plate-coated BSA-compound 1 conjugate, anti-human IgG-peroxidase detection. The protocol:
The conjugate prepared in the above was dispensed at 50 μl/well into a 96 well plate for ELISA (manufactured by Greiner) at a concentration of 0.5 to 1.0 μg/ml and allowed to stand for adsorption overnight at 4° C. After washing with PBS, 1% BSA-containing PBS (BSA-PBS) was added at 100 μl/well and allowed for blocking of remaining active groups to react at room temperature for 1 hour. After washing each well with 0.05% Tween-containing PBS (Tween-PBS), culture supernatants of transformants or purified antibodies were added at 50 μl/well and allowed to react at room temperature for 1 hour. After the reaction, each well was washed with Tween-PBS and then a peroxidase-labeled goat anti-human IgG (H & L) antibody solution (manufactured by American Qualex) diluted 3,000 to 6,000-folds with BSA-PBS was added as a secondary antibody solution at 50 μl/well and allowed to react at room temperature for 1 hour. After the reaction and subsequent washing with Tween-PBS, an ABTS substrate solution [a solution prepared by dissolving 0.55 g of 2,2′-azinobis(3-ethylbenzothiazoline-6-sulfonic acid) ammonium in 1 L of 0.1 M citrate buffer (pH 4.2) and adding 1 μl/ml hydrogen peroxide just before use] was added at 50 μl/well for color development, and the reaction was stopped by adding 5% SDS solution at 50 µl/well. Thereafter, absorbance at 415 nm (OD415) was measured.
The activity of various anti-FGF-8 CDR-grafted antibodies obtained in the item 4 of Example 2 to bind to FGF-8 was measured by the ELISA described in the item 2(6) of Example 1. The YB2/0-derived anti-FGF-8 chimeric antibody KM3334 obtained in the item 3(2) of Example 1 was used as a positive control.

Assay [4] has as its target T3, FGF-8 (manufactured by R&D) (UniProt P55075-3 23-215, limits assumed).
T3 sequence (looked up): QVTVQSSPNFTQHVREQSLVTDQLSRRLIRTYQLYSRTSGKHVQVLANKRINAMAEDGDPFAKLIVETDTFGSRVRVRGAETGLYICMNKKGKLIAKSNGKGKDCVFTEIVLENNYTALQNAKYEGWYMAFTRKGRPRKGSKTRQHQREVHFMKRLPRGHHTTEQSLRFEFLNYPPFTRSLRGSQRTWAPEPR
Briefly: cell-based or functional assay.

B1: anti-FGF-8 CDR-grafted antibody HV0LV3-1/CHO (antibody, V domains shown)
VH: QVQLVQSGAEVKKPGASVKVSCKASGYTFTDYYLNWVRQAPGQGLEWMGEIDPGSDSIYYNENLEGRVTITADTSTSTAYMELSSLRSEDTAVYYCARYGYSRYDVRFVYWGQGTLVTVSS
VL: DVVMTQSPLSLPVTPGEPASISCRSSQSLVHSNGRTYLEWYLQKPGQSPQVLIYKVSNRISGVPDRFSGSGSGTDFTLKISRVEAEDVGVYFCFQGSHVPYTFGQGTKVEIK
notes: CHO/DG44-derived; also called KM8036
Consider B1, for which the binding result in assay [1] was “binds”.

B2: anti-FGF-8 chimeric antibody KM3334 (antibody, V domains shown)
VH: QVQLQQSGAEVARPGASVKLSCKASGYTFTDYYLNWVKQRSGQGLEWIGEIDPGSDSIYYNENLEGRATLTADKSSSTAYMQLNSLTSEDSAVYFCARYGYSRYDVRFVYWGQGTLVTVST
VL: B1 VL with V3L, S7T, T14S, P15L, E17D, P18Q, Q50K, V88L, Q105G, V109L
notes: Same expression vector pKANTEX1334 as KM3034 (human gamma1 / kappa constant regions), expressed in YB2/0 cells; also called KiM3334; YB2/0-derived anti-FGF-8 chimeric antibody
Regarding B2, in assay [2], the binding result is given as “binds”.

B3: anti-FGF-8 CDR-grafted antibody HV0LV6 (antibody, V domains shown)
VH: B1 VH
VL: B1 VL with T14S, P15L, Q50K
notes: YB2/0-derived, vector pKANTEX1334HV0LV6 (from pKANTEX93, human constant regions); also called KM8037
Take B3: in assay [3], the binding result is listed as “binds”.

B4: anti-FGF-8 chimeric antibody KM3034 (antibody, V domains shown)
VH: B2 VH
VL: B1 VL with V3L, S7T, T14S, P15L, E17D, P18Q, Q50K, V88L, Q105G, V109L
notes: Human chimeric antibody with human gamma1 CH and human kappa CL (vector pKANTEX1334, from pKANTEX93), expressed in CHO/DG44 cells; also called CHO/DG44-derived anti-FGF-8 chimeric antibody
For the molecule B4, in assay [1], the binding result was “binds”.

B5: anti-FGF-8 CDR-grafted antibody HV0LV0/CHO (antibody, V domains shown)
VH: B1 VH
VL: B1 VL with V2I, V51L, F92Y
notes: CHO/DG44-derived, vector pKANTEX1334HV0LV0
As to B5, the binding result in assay [1] was “binds”.

B6: anti-FGF-8 CDR-grafted antibody HV0LV4-3/CHO (antibody, V domains shown)
VH: B1 VH
VL: B1 VL with V2I, T14S, P15L
notes: CHO/DG44-derived; also called KM8035
In the case of B6, the “FGF-8 neutralization activity (FGF-8-dependent growth of SC-3 cells)” value in assay [4] was ~0.5 fold of the activity of KM3034. Further, the binding result in assay [1] is recorded as “binds”.

B7: anti-FGF-8 CDR-grafted antibody HV6LV6 (antibody, V domains shown)
VH: B1 VH with K12A, K13R, A40R, P41S, M48I, Y95F
VL: B1 VL with T14S, P15L, Q50K
notes: YB2/0-derived, vector pKANTEX1334HV6LV6 (from pKANTEX93, human constant regions)
As to B7, the binding result in assay [3] was “binds”.

B8: anti-FGF-8 CDR-grafted antibody HV0LV6/CHO (antibody, V domains shown)
VH: B1 VH
VL: B1 VL with T14S, P15L, Q50K
notes: CHO/DG44-derived, vector pKANTEX1334HV0LV6; also called KM8034
As to B8, the binding result in assay [1] is reported as “binds”.

B9: anti-FGF-8 CDR-grafted antibody HV0LV3-3/CHO (antibody, V domains shown)
VH: B1 VH
VL: B1 VL with V2I, T14S, P15L, F92Y
In the case of B9, in assay [4], the “FGF-8 neutralization activity (FGF-8-dependent growth of SC-3 cells)” value was ~0.5 fold of the activity of KM3034.

B10: anti-FGF-8 CDR-grafted antibody HV0LV0 (antibody, V domains shown)
VH: B1 VH
VL: B1 VL with V2I, V51L, F92Y
notes: YB2/0-derived, vector pKANTEX1334HV0LV0 (from pKANTEX93, human constant regions)
Regarding B10, in assay [3], the binding result was “binds”.
